Laboratory results reported in US20160223545A1.

Tests used:
phosphorylated Villin [1] = molecular target: T1, phosphorylated Villin (UniProt P09327); assay: multiplate ELISA, P-Villin coated, GST-Jak3-G257 titrated, anti-GST detection
T1 sequence (tyrosine phosphorylated by expression in E. coli TKX1; sites not stated, looked up): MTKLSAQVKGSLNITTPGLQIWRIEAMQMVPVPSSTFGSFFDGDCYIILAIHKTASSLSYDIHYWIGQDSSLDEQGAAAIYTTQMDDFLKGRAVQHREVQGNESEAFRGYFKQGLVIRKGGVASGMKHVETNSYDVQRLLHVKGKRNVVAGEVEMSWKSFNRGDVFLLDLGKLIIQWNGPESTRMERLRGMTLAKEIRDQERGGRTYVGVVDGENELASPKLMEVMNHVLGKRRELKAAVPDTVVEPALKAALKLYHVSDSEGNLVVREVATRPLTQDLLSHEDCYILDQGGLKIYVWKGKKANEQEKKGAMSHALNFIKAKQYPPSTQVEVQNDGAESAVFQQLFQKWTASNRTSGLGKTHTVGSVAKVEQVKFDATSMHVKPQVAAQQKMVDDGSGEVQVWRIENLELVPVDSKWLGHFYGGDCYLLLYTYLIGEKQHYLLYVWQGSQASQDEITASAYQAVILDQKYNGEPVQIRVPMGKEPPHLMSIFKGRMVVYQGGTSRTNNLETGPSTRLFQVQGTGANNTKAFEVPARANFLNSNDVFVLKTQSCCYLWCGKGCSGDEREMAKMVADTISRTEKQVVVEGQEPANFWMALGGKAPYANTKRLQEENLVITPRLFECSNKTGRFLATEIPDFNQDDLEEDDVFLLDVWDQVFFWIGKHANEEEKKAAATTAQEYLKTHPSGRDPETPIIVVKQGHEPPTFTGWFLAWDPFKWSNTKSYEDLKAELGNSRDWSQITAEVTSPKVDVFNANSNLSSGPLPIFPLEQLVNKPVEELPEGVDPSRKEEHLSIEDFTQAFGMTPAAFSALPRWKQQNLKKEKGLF

phosphorylated Villin [2] = molecular target: T1, phosphorylated Villin; assay: multiplate ELISA, P-Villin coated, GST-P-Jak3 titrated, anti-GST detection, GST-alone control subtracted
[3] = molecular target: phosphorylated adapter protein p52ShcA (UniProt P29353); assay: multiplate ELISA, comparison of Kd values
[4] = molecular target: phosphorylated adapter protein p52ShcA (UniProt P29353); assay: multiplate ELISA, P-p52ShcA coated, GST-P-Jak3 titrated, anti-GST detection

Kd (phosphorylated Villin [1]) [nM]	Kd (phosphorylated Villin [2]) [nM]	fold weaker than P-Jak3 binding with P-Villin [3] [fold]	Kd [4] [nM]	Substance
40	–	–	–	GST-truncated Jak3 fusion protein lacking the JH1, JH2, JH3 and JH4 domains
–	23	10	220	phosphorylated GST-WT-Jak3 fusion protein (enzyme)
